We go through 1 protein from patent publication US20220402990.

Data set [1] concerns the target Activatable cytokine construct IFN-α-2b 1490DNI-hIgG4.
The target of data set [2] is Activatable cytokine construct IFN-α2b-1204DNIdl-hIgG4.
Data set [3] addresses IFN-α2b-1204DNIdl-hIgG4 with five amino acid residues added to the linker.

B1: recombinant human matriptase (MT-SP1) (protein)
chain: VVGGTDADEGEWPWQVSLHALGQGHICGASLISPNWLVSAAHCYIDDRGFRYSDPTQWTAFLGLHDQSQRSAPGVQERRLKRIISHPFFNDFTFDYDIALLELEKPAEYSSMVRPICLPDASHVFPAGKAIWVTGWGHTQYGGTGALILQKGEIRVINQTTCENLLPQQITPRMMCVGFLSGGVDSCQGDSGGPLSSVEADGRIFQAGVVSWGDGCAQRNKPGVYTRLPLFRDWIKENTGV
For B1, the “protease cleavage, gel electrophoresis” value in data set [1], in data set [2] and in data set [3] was “The results suggest that the proteases were effective at cleaving the cleavable moieties in the activatable cytokine constructs” throughout.
